Experiments:
EPYC1 = test: Yeast two-hybrid assay of EPYC1 with Rubisco SSU variants; format: cell-based, Chlamydomonas reinhardtii; settings: growth on SD-L-W-H with 3-AT, three days, FIGS. 9A-9C
From the text: FIGS. 9A-9C show the results of a yeast two-hybrid (Y2H) assay to measure the interaction between EPYC1 and Rubisco SSU variants. […] The images shown were taken following three days of cell growth. The Rubisco SSU residues that form salt bridges with EPYC1 residues are bolded (D23, E24, and R91) and the residues that form the hydrophobic pocket with EPYC1 residues are bolded and italicized (M87 and V94). The “Control” images were taken from cells grown for three days on SD-L-W media and the “Test” images were taken from cells grown for three days on SD-L-W-H with 3-AT. Growth of yeast cells expressing the indicated EPYC1 and Rubisco SSU variants was measured after three days on SD-L-W-H with varying 3-AT concentrations. The highest concentration of 3-AT (0, 1, 2.5, 5, 10, and 20 mM) permissive for the growth of each EPYC1 and Rubisco SSU variant combination is shown, as indicated in the “Key” on the right.
Mutagenesis of EPYC1, Mutagenesis of Rubisco, Yeast Two-hybrid, Peptide Arrays and SPR Assays To determine the importance of individual EPYC1 residues for binding to Rubisco, the impact on Rubisco binding of every possible single amino acid substitution for EPYC1 RBM 2 was determined (FIG. 8). To determine the importance of individual Rubisco residues for binding to EPYC1, targeted mutations of the amino acids identified from atomic modeling were tested in a yeast two-hybrid assay as in van Nues and Beggs (Genetics 157: 1451-1467, 2000). Peptide arrays and SPR assays were performed as in Example 1.

C. reinhardtii cells = test: Confocal fluorescence microscopy localization of Venus fusion proteins; format: cell-based, Chlamydomonas reinhardtii; settings: Venus fluorescence in C. reinhardtii cells
From the text: A synthetic […] (Invitrogen) containing a 643 bp restriction fragment containing the C-terminus of Venus, followed by the sequence coding for the FLAG-tag sequence, and a sequence coding for three repetitions of the 15 C-terminal amino acids of SAGA2, was cloned into pLM005-FDX1, after restriction digestion with EcoRl and PfIMI. GenBank accession number of the empty pLM005 is KX077945.1. The plasmid pLM005-FDX1 is identical to pLM005 with the genomic sequence of FDX1 cloned in frame by Gibson Assembly (Mackinder et al., PNAS 113: 5958-5963, 2015) between residues 2698 and 3234. The terminal 85 amino acids of resultant mature fusion protein, immediately downstream of the FLAG-tag, were a 5 aa linker (GGGGS; SEQ ID NO: 87), a first copy of SAGA2 15 C-terminal aa, followed by a 10 aa linker (2X GGGGS; SEQ ID NO: 88), a second copy of SAGA2 15 last aa, another 10 aa linker (2X GGGGS; SEQ ID NO: 88), and finally a third copy of SAGA2 15 last aa. The sequence of the EcoRI-PfIMI digestion fragment (SEQ ID NO: 89) was cloned in frame into pLM005-FDX1.
Culturing and Transformation of C. reinhardtii: Culturing and transformation of C. reinhardtii for fluorescence localization of protein and imaging was performed as described in Mackinder et al. (PNAS 113: 5958-5963, 2015). […]

Row | Molecule | Rubisco SSU-EPYC1 interaction (EPYC1) | localization pattern within the pyrenoid (C. reinhardtii cells; FIG. 15) | localization (C. reinhardtii cells; FIGS. 14B and 15)
1 | D23A: C. reinhardtii Rubisco SSU with mutation D23A (protein, left off: small tags and cut ends) MMVWTPVNNKMFETFSYLPPLTAEQIAAQVDYIVANGWIPCLEFAEADKAYVSNESAIRFGSVSCLYYDNRYWTMWKLPMFGCRDPMQVLREIVACTKAFPDAYVRLVAFDNQKQVQIMGFLVQRPKTARDFQPANKRSV | severe impact |  | 
2 | E24A: C. reinhardtii Rubisco SSU with mutation E24A (protein, UniProt P00873 46-185, looked up, variant E24A) Ribulose bisphosphate …: MMVWTPVNNKMFETFSYLPPLTDAQIAAQVDYIVANGWIPCLEFAEADKAYVSNESAIRFGSVSCLYYDNRYWTMWKLPMFGCRDPMQVLREIVACTKAFPDAYVRLVAFDNQKQVQIMGFLVQRPKTARDFQPANKRSV | moderate defect |  | 
3 | V94D: C. reinhardtii Rubisco SSU with mutation V94D (protein, UniProt P00873 46-185, looked up, variant V94D) Ribulose bisphosphate …: MMVWTPVNNKMFETFSYLPPLTDEQIAAQVDYIVANGWIPCLEFAEADKAYVSNESAIRFGSVSCLYYDNRYWTMWKLPMFGCRDPMQVLREIDACTKAFPDAYVRLVAFDNQKQVQIMGFLVQRPKTARDFQPANKRSV | severe impact |  | 
4 | R91A: C. reinhardtii Rubisco SSU with mutation R91A (protein, UniProt P00873 46-185, looked up, variant R91A) Ribulose bisphosphate …: MMVWTPVNNKMFETFSYLPPLTDEQIAAQVDYIVANGWIPCLEFAEADKAYVSNESAIRFGSVSCLYYDNRYWTMWKLPMFGCRDPMQVLAEIVACTKAFPDAYVRLVAFDNQKQVQIMGFLVQRPKTARDFQPANKRSV | moderate defect |  | 
5 | M87D: C. reinhardtii Rubisco SSU with mutation M87D (protein, UniProt P00873 46-185, looked up, variant M87D) Ribulose bisphosphate …: MMVWTPVNNKMFETFSYLPPLTDEQIAAQVDYIVANGWIPCLEFAEADKAYVSNESAIRFGSVSCLYYDNRYWTMWKLPMFGCRDPDQVLREIVACTKAFPDAYVRLVAFDNQKQVQIMGFLVQRPKTARDFQPANKRSV | severe impact |  | 
6 | RBM P1-Venus: Rubisco-Binding Membrane Protein 1 (SEQ ID NO: 1) fused to the Venus fluorescent protein (protein) MQCQLKHGARPQSQRPNWLPARAATLRPAVQHGVRRGLTLGVKAAAAPLEDKKMPADMTTRQYRRVVYDFALWAKHRDVNRYLYNLRTIPGSRIIRQLSQPMGVVLAWAALFGFYETCLEAGVLPSYLPKMTLMSAEPQGLTSFALSLLLVFRTNSSYGRFDEARKIWGGILNRARNIANQAVTFIPAEDQAGREAVGKWTVGFTRALQAHLQEDIDLRKELEKATPRWSKEEIDMLVNAQHRPIKAISVLSELTRQLSITQFQALQMQENCTFFYDALGGCERLLRTPIPVSYTRHTARFLTIWLAMLPLGLWERYHWSMLPVIALIGFLLLGIDEIGISIEEPFGILPLDAICGRAQTDVNSLLKEDPAVMKYVDDVRSGRVKSPPPLPPAPAAPAAAAAAAAAAARSVSPQPDVAKTLGSLFTNVRAGVGAVAPGAPLMPQAPVRSPSPTRSVSPSFPRASAGTGMPPPVGMNGATPRVAAAPPTPPPVSRPAAPAAAPAAGSGFTMPNFSASLSGLTGGAAAAAKSAADAASSKLTKMADSMSSGAAAPAPPAAPARPSTSPRPSASSPISSSADADRSDSSRRPVNWRDELQSLKATREPNGNGNGSGVAPAAGRADADEEALRRFGNLAGRSRSGNGGGGSSDTELSEANRPRTRPDWRNQL |  | limited to an inner sphere of the Rubisco matrix | localized to the pyrenoid
